The target of one data set is T1, Peptide 5 (GPLGVRG).
T1 chain: GPLGVRG

Data set [1] addresses Control (peptide of Table 12).

B1: rhMMP2 (protein)
chain: YNFFPRKPKWDKNQITYRIIGYTPDLDPETVDDAFARAFQVWSDVTPLRFSRIHDGEADIMINFGRWEHGDGYPFDGKDGLLAHAFAPGTGVGGDSHFDDDELWTLGEGQVVRVKYGNADGEYCKFPFLFNGKEYNSCTDTGRSDGFLWCSTTYNFEKDGKYGFCPHEALFTMGGNAEGQPCKFPFRFQGTSYDSCTTEGRTDGYRWCGTTEDYDRDKKYGFCPETAMSTVGGNSEGAPCVFPFTFLGNKYESCTSAGRSDGKMWCATTANYDDDRKWGFCPDQGYSLFLVAAHEFGHAMGLEHSQDPGALMAPIYTYTKNFRLSQDDIKGIQELYGASPDIDLGTGPTPTLGPVTPEICKQDIVFDGIAQIRGEIFFFKDRFIWRTVTPRDKPMGPLLVATFWPELPEKIDAVYEAPQEEKAVFFAGNEYWIYSASTLERGYPKPLTSLGLPPDVQRVDAAFNWSKNKKTYIFAGDKFWRYNEVKKKMDPGFPKLIADAWNAIPDNLDAVVDLQGGGHSYFFKGAYYLKLENQSLKSVKFGSIKSDWLGC
Take B1: the Specific Activity with Peptide 10 was found to be 163 pmol/min/µg; in the data set with Peptide 5 (GPLGVRG), 260 pmol/min/µg; with Peptide 8, 260 pmol/min/µg; in data set [1], 10 pmol/min/µg.

B2: rhMMP7 (protein)
chain: YSLFPNSPKWTSKVVTYRIVSYTRDLPHITVDRLVSKALNMWGKEIPLHFRKVVWGTADIMIGFARGAHGDSYPFDGPGNTLAHAFAPGTGLGGDAHFDEDERWTDGSSLGINFLYAATHELGHSLGMGHSSDPNAVMYPTYGNGDPQNFKLSQDDIKGIQKLYGKRSNSRKK
Turning to B2, the Specific Activity in the data set with Peptide 10 turned out to be 98.4 pmol/min/µg; with Peptide 5 (GPLGVRG) it was 10 pmol/min/µg; with Peptide 8, 70.9 pmol/min/µg; in data set [1], 10 pmol/min/µg.

B3: rhMMP1 (protein)
chain: FVLTEGNPRWEQTHLTYRIENYTPDLPRADVDHAIEKAFQLWSNVTPLTFTKVSEGQADIMISFVRGDHRDNSPFDGPGGNLAHAFQPGPGIGGDAHFDEDERWTNNFREYNLHRVAAHELGHSLGLSHSTDIGALMYPSYTFSGDVQLAQDDIDGIQAIYGRSQNPVQPIGPQTPKACDSKLTFDAITTIRGEVMFFKDRFYMRTNPFYPEVELNFISVFWPQLPNGLEAAYEFADRDEVRFFKGNKYWAVQGQNVLHGYPKDIYSSFGFPRTVKHIDAALSEENTGKTYFFVANKYWRYDEYKRSMDPGYPKMIAHDFPGIGHKVDAVFMKDGFFYFFHGTRQYKFDPKTKRILTLQKANSWFNCRKN
Take B3: the Specific Activity worked out at 10 pmol/min/µg with Peptide 10, 10 pmol/min/µg with Peptide 5 (GPLGVRG), 10.8 pmol/min/µg with Peptide 8 and 10 pmol/min/µg in data set [1].

B4: rmMMP9 (protein)
chain: FQTFKGLKWDHHNITYWIQNYSEDLPRDMIDDAFARAFAVWGEVAPLTFTRVYGPEADIVIQFGVAEHGDGYPFDGKDGLLAHAFPPGAGVQGDAHFDDDELWSLGKGVVIPTYYGNSNGAPCHFPFTFEGRSYSACTTDGRNDGTPWCSTTADYDKDGKFGFCPSERLYTEHGNGEGKPCVFPFIFEGRSYSACTTKGRSDGYRWCATTANYDQDKLYGFCPTRVDATVVGGNSAGELCVFPFVFLGKQYSSCTSDGRRDGRLWCATTSNFDTDKKWGFCPDQGYSLFLVAAHEFGHALGLDHSSVPEALMYPLYSYLEGFPLNKDDIDGIQYLYGRGSKPDPRPPATTTTEPQPTAPPTMCPTIPPTAYPTVGPTVGPTGAPSPGPTSSPSPGPTGAPSPGPTAPPTAGSSEASTESLSPADNPCNVDVFDAIAEIQGALHFFKDGWYWKFLNHRGSPLQGPFLTARTWPALPATLDSAFEDPQTKRVFFFSGRQMWVYTGKTVLGPRSLDKLGLGPEVTHVSGLLPRRLGKALLFSKGRVWRFDLKSQKVDPQSVIRVDKEFSGVPWNSHDIFQYQDKAYFCHGKFFWRVSFQNEVNKVDHEVNQVDDVGYVTYDLLQCP
Take B4: the Specific Activity was 111 pmol/min/µg with Peptide 10, 292 pmol/min/µg with Peptide 5 (GPLGVRG), 158 pmol/min/µg in the data set with Peptide 8 and 10 pmol/min/µg in data set [1].

The values are drawn from patent US20240262879.
